Data as given in PMC4674064, “Newly Characterized Region of CP190 Associates with Microtubules and Mediates Proper Spindle Morphology in Drosophila Stem Cells” (PLoS ONE, 2015).

Biological target: the molecule itself
Assay: SEC-MALS; Superdex 200 10/300 GL, 25 mM Tris pH 7.4, 0.2 g/L NaN2, 0.5 mL/min

B1: Drosophila melanogaster CP190 BTB domain (residues 1-135) (domain or fragment, UniProt Q24478 1-135, looked up)
chain: MGEVKSVKVDNWGVFFLQKLQNFFNKTDYCDLTLQFRDNSQLKVHRLVLSACTDYFNVLEQTCEIVDDALIMPNEFQADVVVPIVNFMYTGTLEFELKMYGKLLRTAKEMNMTVLLKLLEAHRRTMENVNRQQRP
notes: CP190 (centrosome associated protein at 190 kDa), Drosophila melanogaster, BTB domain, residues 1-135; the final crystal model holds residues 2-121; Native and selenomethionine-substituted protein were crystallised; also called BTB-WT; source: E. coli BL21 DE3 (pLysS), purified (Ni-NTA, thrombin digestion, Q-sepharose ion exchange); not shown: His6, N-terminal, cleaved
- stoichiometry N: 2
